Results from patent publication US9051572.

What was measured:
[1] = biological target: Purified recombinant ubiquitin containing an amino terminal FLAG sequence (UniProt P0CG48)
[2] = biological target: in vitro translated [35S] TAp73α (UniProt O15350)
[3] = biological target: in vitro translated [35S] TAp73δ (UniProt O15350)
[4] = biological target: in vitro translated [35S] p53 (UniProt P04637)

Substance	ELISA for self-ubiquitination of Itch, OD450 signal [1]	in vitro ubiquitination (higher molecular weight [35S] species on SDS-PAGE) [2]	in vitro ubiquitination (higher molecular weight [35S] species on SDS-PAGE) [3]	in vitro ubiquitination (higher molecular weight [35S] species on SDS-PAGE) [4]
GST-Itch MUT (C830A), Thr 277 to Glu 903	a background signal of 0.093 was obtained	this mutant, that retains the ability to bind TAp73 ... lost the ability to promote TAp73 ... ubiquitination		
GST-Itch, from Thr 277 to Glu 903 (lacking the N-terminal C2 domain)	an assay OD450 signal of 1.972 was obtained	protein was ubiquitinated, as shown by the appearance of discrete higher molecular weight	The inability of Itch to ubiquitinate p738 and p53	The inability of Itch to ubiquitinate p738 and p53
